Results from US20030124114A1.

Molecular target: hepatitis A virus (HAV) particles (hepatitis A virus)
Assay: cell-based or functional assay

D1muc-Fc fusion protein (IgVmuc-hIg)
HAV infectivity (neutralization): 2 logs
